# Experimental data published in the supplement of paper PMC9170038.
# Test system: MS2 coat protein
# Assay: apparent KD of MS2 coat protein; higher = weaker reporter binding
# Conditions: Eterna round: R107; input ligand: arginine 13.2 mM
# Method in brief: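 Illumina sequencing clusters served as templates for on-chip transcription of the designed RNA switches. SNAP-549-labelled MS2 coat protein was then titrated in twofold steps from 0.7 or 1.5 nM to 3 µM, allowing 0.8–1.5 h per step at first and 10–20 min per step later. The buffer held 100 mM Tris-HCl pH 7.5, 80 mM KCl and 4 mM MgCl2, without or with constant ligand. Apparent KD is the median per design of normalised cluster binding-curve fits.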
row,Sequence,apparent KD of MS2 coat protein
1,ACAUGAGGAUCACCCAUGUGGCGUCUUGAUACCAGACCCGCACUAGUCCCUUGGCAGCAACUACGUGAGGGUCGCCCAUGUGUAG [zxdullin],32.4 nM
2,UCGCAUUGCUGCGAUACCAGACAUGAGGAUCACCCAUGUACCAAGAAAACGUACAUAAAUGUCCCUUGGCAGCGCAGCAAUGCGU [MAT - Exclusion Theophlline B - Mod of Eli - D26],148 nM
3,AAACGUUGCUGCGAUACCAGACAUGAGGAUCACCCAUGUACCAAGGUACGAAAAUAACAUGUCCCUUGGCAGCGCAGCAACGAAA [MAT - Exclusion Theophlline B - Mod of Eli - D6],15.7 nM
4,UCCUCCUCCGCAAGGAGGAGGAGUUGCGAUACCAGCCCGGAAACGGGCCCUUGGCAGCGCACAUGAGGAUCACCCAUGUCAUGUU [#1 Exclusion - Theophylline A Attempt #8 (HarryS)],14.6 nM
5,ACAUGAGGAUCACCCAUGUCUGCCACUGAUACCAGCGGAUGCCAACGCCCUUGGCAGCAGAACAUGAGGAUCACCCAUGUAGGCA [Same State Theophylline A GF25],99.5 nM
6,UCCUUAGAUACUGAUACCAGACUACAGUAAACAUGAGGAUCACCCAUGUUUGAUCACUAAGUCCCUUGGCAGCAGGUACAUGGGA [Theo B SS r1],12.6 nM
7,AUGCGGUGCGGAAGGAGCGAGUUUGCCUAUUUACAUGAGGAUCACCCAUGUCCUAAUGGGACUCAGGUAGGUCGCCGUUGUCGCA [Same State Arginine B GF 29],47.7 nM
8,UAUAUAUAGGCGGCCGCCACUGAUUUUCAUAUAUAUAUAACAUGAGGAUCACCCAUGUAGAUAUACAGGACCGGGCCUAUAUAUA [aaaA],17 nM
9,UCGGGCCUUCUUUCUUGGCCCGUUACAGAAGGAGCGUCGGAAAUGACAGGUAGGUCGCUGAGAACAUGAGGAUCACCCAUGUAUU [SSAA #14],16.8 nM
10,AUACCUAUUGAGUCGUGUUUCUAUUCAGAUACCAGACUUUUCGUUGUCCCUUGGCAGCUGUUUUACAUGAGGAUCACCCAUGUUG [JR_ExcTheophyA_Sub006],14.6 nM
11,AAGGGACAUGAGGAUCACCCAUGUACCGAAGGAGCGGCAGAGAUGCCAGGUAGGUCGCGGUACUUGCCGGGUCAUUCAUGCAAAA [Teanbe],16.4 nM
12,UUUAGUCAAUCGGCCGCCACUGACAUGAGGAUCACCCAUGUAGGUAAGGAUCAACCUCGAAAGUACAGGACCGGGAUUCGCCUCU [theeternabot_exclusion_MS2_Trp_B_45],51.7 nM
13,GGUUGGUGUAGAGAUAUAUUGAUUACUGAAGGAGCGGGACGAAACCCAGGUAGGUCGCAGAGAUCCACAUGAGGAUCACCCAUGU [!0.M],31.6 nM
14,CUCUGAGUCCGUAAGGACUCAGAGGCGGAUACCAGCGAGGUCCAUCGCCCUUGGCAGCCGAACAUGAGGAUCACCCAUGUCGGUA [#1 Same State - Theophylline A Attempt #25 (HarryS)],11.6 nM
15,ACAUGAGGAUCACCCAUGUUUGUUGUUCCUCGAGGACCGGUACGGCCGCCACUCGAACGAGUGGCGCGCGAGUGCGCACUCGCGC [aOa],12.7 nM
16,ACGUCAACCCUUAUGUUGAUGCAAGACGAUACCAGCCUGGAUACAGGCCCUUGGCAGCGUCAACAUGAGGAUCACCCAUGUAAUA [(T)''-(MT)'-(Theo)-(Ms2)],32.2 nM
17,ACACGAAGCUGAAGGAGCGUGGUAUAAUUUUUUACAUGAGGAUCACCCAUGUCUCAUUUUUCACAGGUAGGUCGCAGAUGCGUGA [JR_SSArginiB_Sub015],54.5 nM
18,AUUGCGAGUGAGUCGUGUAACGAUUCAGAUACCAGGCAUUUCGUUGUCCCUUGGCAGCUGUCUUACAUGAGGAUCACCCAUGUUA [#29 Exclusion-TheophyllineA],23.8 nM
19,AGACAUGAGGAUCACCCAUGUAGUAUGGAUACCAGAUCCAGAUUUAUCCCUUGGCAGCUGUGGUACAGCGAUGGAUUGCUCCUAG [Exclusion - Theophylline A (Freestyle 10)],33.5 nM

row,Sequence,apparent KD of MS2 coat protein
1,UUUGAUAGGACAGAUACCAGCGUGUUGUAGAACAUGAGGAUCACCCAUGUAGUGAUCAAGCGCCCUUGGCAGCUGGUUUGUUAGG [7.L],184 nM
2,GGUAGACGGACGGCCGCCACUCACAUGAGGAUCACCCAUGUAUAGUUGGUAAUCUGGGUUCAGGAGAGGACCGGGUCCUUGUCAG [theeternabot_exclusion_MS2_Trp_B_43],34.3 nM
3,UUACCGUAAGGUAUACCGGUCCACAAUAAUCGAGGACCGGUACGGCCGCCACUCGAUGUGUGAUCACAUGAGGAUCACCCAUGUA [Tryptophan A 20],99.4 nM
4,AUUCAGAGAUCACAUGAGGAUCACCCAUGUCGAGGACCGGUACGGCCGCCACUCGCGGCGGUGAAAAUAGAUACAAAGUAUCUAU [Ex_TrypA - Vienna approves #2],25.5 nM
5,ACAUGAGGAUCACCCAUGUACAUGAGGGAAGGAGCGGUACAUGAGCCAGGUAGGUCGCCCAACAGCAAAUGGCAUGUACAACGGA [hhnmullin],33.8 nM
6,GAGCGCGUGGACUGGCGUGCUCCGCUCCGUCGAGGACCGGUACGGCCGCCACUCGACAUGAGGAUCACCCAUGUGCGCGCUCGCU [#1 Exclusion - Tryptophan A Attempt #23 (HarryS)],7.37 nM
7,GCCGCGGCCGCGAUACACAUGGGUGUGUAACGAGGACCGGUACGGCCGCCACUCGAGAUGGCACAUGAGGAUCACCCAUGUGUGC [Exclusion Tryp A GF16],17.1 nM
8,CUCUUGGCCGCAGUACGUUUAUAGACCUAUCGAGGACCGGUACGGCCGCCACUCGGUUAGUCACAUGAGGAUCACCCAUGUGUCC [theeternabot_exclusion_MS2_Trp_A_38],17 nM
9,GGCACGUACGGAAGGAGCGACUGUUCAACGUGGGUACAUGAGGAUCACCCAUGUCUCCGCAGUCAGGUAGGUCGCCGUACGUGCC [EAB NP+V+V2 #20],15 nM
10,GUUAUAUCAAAAGAUGUAACAGUGGGUGAACGAGGACCGGUACGGCCGCCACUCGGACAUGAGGAUCACCCAUGUCCAUGUGAAA [AstrosExyTryA#14],15.8 nM
11,ACAUGAGGAUCACCCAUGUACAUCACCCGACGAGGACCGGUACGGCCGCCACUCGGGUAUAUAUUUACAUCGGGUGAUUUUACGU [#23 Tryptophan A Same State],21.9 nM
12,ACAUGAGGAUCACCCAUGUGCCGUCUUGAUACCAGACCCGAAGUAGUCCCUUGGCAGCAACUACGUGAGGGUCGCCCAUGUGUAG [5kullin],16.1 nM
13,AGCACUGUGACGGCCGCCACUAUAUUAGGGUGGUAAGGUUCAUAAAUACAUGAGGAUCACCCAUGUAGGACCGGGUCUCAGUGCA [Omei Trp Exc B A v2],11.8 nM
14,UUUGAUAGGACAGAUACCAGCGUGUUAUAAAACAUGAGGAUCACCCAUGUAGUGAUCAAGCGCCCUUGGCAGCUGGUUUGUUAGG [7.J],73.5 nM
15,ACUUGAUACUGAAGGAGCGUCGGAUAAACUCGCACAUGAGGAUCACCCAUGUAUAUGAAUCGGCAGGUAGGUCGCAGUAUCGAGU [#21 Same State - Arginine B],14.8 nM
16,AAUAACAUGAGGAUCACCCAUGUAAAAGAUACCAGAUGCAUGAUGAUCCCUUGGCAGCUUAAAACGCGAUUGGAAACAAUCGCGA [Mat - Same State Theophlline A - Mod of Eli - D13],46.1 nM
17,CCUUAAUAUAGAAGGAGCGCGCUAACAUGAGGAUCACCCAUGUAAAGGGUUUUGGGCUUAGCGCAGGUAGGUCGCUAUAAGAACC [Arg B Ex t2],60.1 nM
18,AACAUGAGGAUCACCCAUGUCCCAUGUGAACGAGGACCGGUACGGCCGCCACUCGACUGAGGCGGCACAUGAGGAUCACCCACAU [whbob_SS_trypto A_2s12],151 nM
